# Publication PMC2175300
# B1: 26-bp FOXO consensus FA duplex (dsDNA)
# DNA 1: CGCATCCTATGTAAACAACTCGAGTC
# DNA 2: GACTCGAGTTGTTTACATAGGATGCG
# Legend:
# Assay in all cases: fluorescence anisotropy
# [1] = target: FOXO3a-DBD S253D (Homo sapiens, UniProt O43524 158-253, S253D)
# [2] = target: FOXO3a-DBD K245A (Homo sapiens, UniProt O43524 158-253, K245A)
# [3] = target: FOXO3a-DBD RRR/AAA (Homo sapiens, UniProt O43524 158-253, R248A;R249A;R250A)
# [4] = target: FOXO3a-DBD K242A (Homo sapiens, UniProt O43524 158-253, K242A)
# FOXO3a-DBD K242A, sequence (O43524 158-253 K242A): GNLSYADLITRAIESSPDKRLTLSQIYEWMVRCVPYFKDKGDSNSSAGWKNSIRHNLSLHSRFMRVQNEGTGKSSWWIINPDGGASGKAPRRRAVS
# [5] = target: FOXO3a-DBD WT (Homo sapiens, UniProt O43524 158-253)
# FOXO3a-DBD WT, sequence (O43524 158-253): as the sequence (O43524 158-253 K242A) above, with A85K counted along it
# [6] = target: FOXO3a-DBD 158-240 (Homo sapiens, UniProt O43524 158-240)
# FOXO3a-DBD 158-240, sequence (O43524 158-240): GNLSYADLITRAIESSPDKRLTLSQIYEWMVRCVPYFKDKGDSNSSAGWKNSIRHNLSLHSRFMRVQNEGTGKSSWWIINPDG
# FOXO3a-DBD K245A, sequence (O43524 158-253 K245A): as the sequence (O43524 158-253 K242A) above, with A85K, K88A counted along it
# FOXO3a-DBD RRR/AAA, sequence (O43524 158-253 R248A/R249A/R250A): as the sequence (O43524 158-253 K242A) above, with A85K, R91A, R92A, R93A counted along it
# FOXO3a-DBD S253D, sequence (O43524 158-253 S253D): as the sequence (O43524 158-253 K242A) above, with A85K, S96D counted along it
binder,measurement,setting,value
B1,Kd,[1],549 ± 55 nM
same,Kd,[2],511 ± 63 nM
same,Kd,[3],1180 ± 168 nM
same,Kd,[4],399 ± 25 nM
same,Kd,[5],295 ± 26 nM
same,Kd,[6],1490 ± 197 nM
